Experiment [1] has as its target T1, PD-1-Fc fusion protein (extracellular region of human PD-1 fused to human Fc) (human).
T1 construct: unlabelled when coated on plates or immobilized; also called human PD-1-Fc; PD-1-Fc-biotin
As to the kind of experiment: ELISA on coated PD-1-Fc, HRP anti-human kappa.

Experiment [2] concerns the target T2, Cynomolgus monkey PD-1-Fc (Cynomolgus monkey, UniProt B0LAJ3 25-170).
T2 construct: not shown: The Fc part and any linker
Put plainly: ELISA on coated Cynomolgus monkey PD-1-Fc, HRP anti-human kappa. The method, then:
(§1) Finally, TMB was added as a substrate for HRP, and the absorbance was measured at 450 nm.
In general terms: An ELISA detects its analyte on a solid surface through an enzyme-linked reagent.

The target in experiment [3] is T3, mouse PD-1-Fc (mouse, UniProt Q02242 25-169).
T3 construct: extracellular domain; not shown: Fc part
T3 sequence (looked up): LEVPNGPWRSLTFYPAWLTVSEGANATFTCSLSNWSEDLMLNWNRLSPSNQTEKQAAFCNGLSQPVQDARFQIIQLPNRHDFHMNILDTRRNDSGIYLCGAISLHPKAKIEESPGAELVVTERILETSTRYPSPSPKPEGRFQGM
Put plainly: ELISA on coated mouse PD-1-Fc, HRP anti-human kappa. The method, then: as §1

Experiment [4] has as its target T1, PD-1-Fc fusion protein (extracellular …). Put plainly: ELISA on coated human PD-1-Fc, HRP anti-human kappa. The method, then:
as §1

The target of experiment [5] is T4, full-length human PD-1 expressed on transfected CHO-K1 cells (CHO/PD-1) (human, UniProt Q15116 25-288).
T4 construct: also called PD-1-transfected CHO cells; cell surface PD-1
As to the kind of experiment: flow cytometry blocking assay, 10 ug/ml antibody with biotin-PD-L1-Fc (blocked ligand) on CHO/PD-1 cells, Avidin-PE. The procedure: Then the mixture was added to the CHO/PD-1 cells. After 1 hour, the cells were washed and binding of was detected with Avidin-PE. Flow cytometric analysis was performed using a FACScan flow cytometry (Becton Dickinson).
In general terms: Flow cytometry measures light scatter and fluorescence of single cells or particles in a stream.

The target in experiment [6] is T1, PD-1-Fc fusion protein (extracellular …). As to the kind of experiment: solution-equilibrium ELISA (Holash method): antibody preincubated with PD-1-Fc, free antibody captured on coated PD-1-Fc. The method, then:
as §1

For experiment [7], the target named is T5, CD28 (Homo sapiens (Human), UniProt P10747 19-152).
T5 construct: also called CD28 family member CD28
As to the kind of experiment: ELISA on coated CD28, HRP anti-human kappa. The method, then:
(§2) The specificity of anti-PD-1 antibodies was examined by detecting their binding to CD28 family members ICOS, CTLA-4 and CD28 (R&D System) using standard ELISA. […] Finally, TMB was added as a substrate for HRP, and the absorbance was measured at 450 nm.

The target of experiment [8] is T6, CTLA-4 (Homo sapiens (Human), UniProt P16410 36-161).
T6 construct: also called CD28 family member CTLA-4
T6 sequence: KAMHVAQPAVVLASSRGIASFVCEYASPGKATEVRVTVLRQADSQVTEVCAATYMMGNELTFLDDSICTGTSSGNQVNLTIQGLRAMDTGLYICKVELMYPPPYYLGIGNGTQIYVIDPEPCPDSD
Put plainly: ELISA on coated CTLA-4, HRP anti-human kappa. The procedure: as §2

The target of experiment [9] is T7, ICOS (Homo sapiens (Human), UniProt Q9Y6W8 21-140).
T7 construct: also called CD28 family member ICOS
T7 sequence: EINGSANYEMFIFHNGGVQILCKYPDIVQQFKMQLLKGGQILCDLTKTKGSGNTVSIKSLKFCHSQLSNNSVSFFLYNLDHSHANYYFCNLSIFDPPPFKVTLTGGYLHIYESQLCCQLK
As to the kind of experiment: ELISA on coated ICOS, HRP anti-human kappa. The method, then:
as §2

Experiment [10] addresses T5, CD28. Put plainly: ELISA on coated CD28, HRP anti-mouse kappa. The method, then:
as §2

The target of experiment [11] is T7, ICOS. Put plainly: ELISA on coated ICOS, HRP anti-mouse kappa. The procedure:
as §2

Experiment [12] deals with T1, PD-1-Fc fusion protein (extracellular …). As to the kind of experiment: ELISA on coated PD-1-Fc, HRP anti-mouse kappa.
For experiment [13], the target named is T6, CTLA-4. Put plainly: ELISA on coated CTLA-4, HRP anti-mouse kappa. The method, then: as §2
For experiment [14], the target named is T1, PD-1-Fc fusion protein (extracellular …). As to the kind of experiment: ELISA on coated human PD-1-Fc, HRP anti-mouse kappa. The method, then:
as §1

The target of experiment [15] is T2, Cynomolgus monkey PD-1-Fc. As to the kind of experiment: ELISA on coated Cynomolgus monkey PD-1-Fc, HRP anti-mouse kappa. The procedure:
as §1

The target of experiment [16] is T3, mouse PD-1-Fc. As to the kind of experiment: ELISA on coated mouse PD-1-Fc, HRP anti-mouse kappa. The method, then: as §1
For experiment [17], the target named is T4, full-length human PD-1 expressed on …. As to the kind of experiment: flow cytometry competition on CHO/PD-1 cells, competitor FITC labelled Nivolumab at a sub-saturating concentration.
Experiment [18] deals with T1, PD-1-Fc fusion protein (extracellular …). Put plainly: SPR (Biacore), ligand PD1-Fc-biotin, sample hu67D9, 25 C, fit 1:1 Binding. The method, then: (§3) Affinity constants were calculated from the ratio of the rate constants.
(In general: SPR reads the build-up and loss of mass on a sensor chip optically.)

The target is the same in experiment [19]. Put plainly: competition ELISA on coated PD-1-Fc, blocked ligand biotin labelled PDL1-Fc, HRP-avidin.
Experiment [20] shares this target. As to the kind of experiment: competition ELISA on coated PD-1-Fc, competitor biotin labelled Nivolumab, HRP-avidin.
Experiment [21] has as its target T4, full-length human PD-1 expressed on …. Put plainly: flow cytometry on CHO/PD-1 cells, FITC anti-human antibody. The method, then:
After 1 hour incubation, the cells were washed and an FITC labelled anti human antibody was incubated for 1 hour. Then the cells were washed and the flow cytometric analysis was performed using a FACScan flow cytometry.

Experiment [22] concerns the target T1, PD-1-Fc fusion protein (extracellular …). As to the kind of experiment: ELISA on coated PD-1-Fc, HRP anti-human kappa. The source holds these as a separate data set.
For experiment [23] the target is unchanged. As to the kind of experiment: SPR (Biacore), PD-1-Fc immobilized, antibody as analyte. The method, then:
as §3

B1: 67D9 chimeric antibody (c67D9) (antibody, human IgG4 S228P, kappa, V domains shown)
VH: EVILVESGGGLVKPGGSLKVSCAASGFTFSTYGMSWVRQTPEKRLEWVATISGGGRDTYYPDTVKGRFTISRDNAKNTLYLQMSSLRSEDTALYYCARQDYGNYVWFAYWGQGTLVTVSA
VL: not shown
notes: Human kappa light chain (detected with anti-human kappa); also called chimeric Ab
As for B1, the concentration giving a half-maximal response (EC50 (read off the curve)) in [1], in experiment [2] and in experiment [4] was roughly 10 ng/mL in each case. The binding result is given as “no binding (tested: 1000 ng/ml)” in experiment [3]; “binds” in [5]; “no binding (tested: 1000 ng/ml)” in experiment [7]; “no binding (tested: 1000 ng/ml)” in experiment [8]; “no binding (tested: 1000 ng/ml)” in experiment [9]. The Kd – broadly, a measure of binding affinity in units of concentration – in [6] is 0.0169 nM.

B2: 67D9 (mouse anti-PD-1 monoclonal antibody) (antibody, mouse IgG2a, V domains shown)
VH: EVILVESGGGLVKPGGSLKVSCAASGFTFSTYGMSWVRQTPEKRLEWVATISGGGRDTYYPDTVKGRFTISRDNAKNTLYLQMSSLRSEDTALYYCARQDYGNYVWFAYWGQGTLVTVSA
VL: not shown
notes: Purified from hybridoma supernatant by Protein G; also called mouse Ab
As for B2, the binding result in experiment [10] is “no binding (tested: 1000 ng/ml)”; in [11] it was “no binding (tested: 1000 ng/ml)”; in experiment [13] it was “no binding (tested: 1000 ng/ml)”; in experiment [5] it was “binds”; in experiment [16] it was “no binding (tested: 1000 ng/ml)”. Also, the “EC50 (read off the curve)” value in [12], in experiment [14] and in experiment [15] was roughly 10 ng/mL each time. This molecule also came in with a Kd in [6] of 0.0124 nM.

B3: anti-PD-1 humanized antibody hu67D9 (antibody, human IgG4 S228P, kappa, V domains shown)
VH: EVQLVESGGGLVQPGGSLRLSCAASGFTFSTYGMSWVRQAPGKGLEWVATISGGGRDTYYPDTVKGRFTISRDNSKNTLYLQMSSLRAEDTAVYYCARQDYGNYVWFAYWGQGTLVTVSS
VL: DIVLTQSPASLAVSPGQRATISCRASESVDSYGISFMHWFQQKPGQPPQLLIYSTSNRGSGVPARFSGSGSGTDFSLTINPVEADDTANYFCQQSQEVPWTFGQGTKVEIKR
notes: also called humanized 67D9; humanized Ab
In the case of B3, the “IC50 (read off the curve)” value in experiment [17] was roughly 5000 ng/mL; in experiment [19] it was roughly 2 ng/mL; in [20], roughly 5000 ng/mL. In addition, in [18], the koff (commonly the rate constant with which the complex falls apart) amounted to 2.77e-05 s⁻¹. Besides, the kon (as a rule, a measure of how fast the partners come together) in experiment [18] was found to be 8.63e+06 M⁻¹ s⁻¹. Further, the concentration for a half-maximal effect (EC50 (read off the curve)) (in general, the concentration that produces a half-maximal response) in experiment [1] was roughly 10 ng/mL; in experiment [2] it was roughly 10 ng/mL; in [4] it was roughly 10 ng/mL; in experiment [21], roughly 20 ng/mL; in experiment [22], roughly 10 ng/mL. The binding result in [3], in [7], in experiment [8] and in experiment [9] was “no binding (tested: 1000 ng/ml)” each time. Moreover, the Kd in experiment [23] worked out at 0.00321 nM; in [6], 0.0154 nM.

Values taken from patent publication US20180282412A1 (ASIA BIOTECH PTE, published 2018).
